Laboratory results reported in paper PMC1784095.
pKd: −log10 of the molar value.

Tests used:
[1] = test system: Crp (Escherichia coli K-12 W3110); assay: EMSA; settings: 20 uM cAMP; apparent Kd; Crp EMSA: 10 mM Tris-HCl pH 8.0, 50 mM KCl, 1 mM EDTA, 0.1 mM DTT, 50 ug/ml BSA, 10 ug/ml poly(dI-dC), 12.5% glycerol, cAMP (20 uM in Results, 20 mM in Methods …)
[2] = target: T1, ArgR (Escherichia coli K-12 W3110) (UniProt P0A6D0); assay: EMSA; settings: Crp EMSA: 10 mM Tris-HCl pH 8.0, 50 mM KCl, 1 mM EDTA, 0.1 mM DTT, 50 ug/ml BSA, 10 ug/ml poly(dI-dC), 12.5% glycerol, cAMP (20 uM in Results, 20 mM in Methods …)
T1 sequence: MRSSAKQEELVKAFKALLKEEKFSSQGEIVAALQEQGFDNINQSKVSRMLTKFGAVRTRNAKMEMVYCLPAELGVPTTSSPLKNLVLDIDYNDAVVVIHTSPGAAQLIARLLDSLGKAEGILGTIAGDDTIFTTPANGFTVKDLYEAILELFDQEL

Question: With PgltB -406 to +246 as the substance, how does the pKd [1] read?
Answer: 7.46

Question: What about the pKd ([2]; 5 mM L-arginine, apparent Kd, Hill 2.0) of the same substance?
Answer: 8.74

Question: How did the pKd [2] turn out when “AATTCGGCGATGACCTGGATCAATCGTCCCGGCCTGCTTTTATCAACTGCATAATCAATCAAAATTACCGAAATTTCATGCATAATCACATAAATCACTTTTGCTTATCTTGTGTCAGATTTTTTTATCTCCTGATGGATTTTAGGCAAAAACAGTAGCATGAAACGTCATTACCAATTAAGGCAGTATAAAATGCTGGTTTTGTCGTCAGTTCAAGGCAGGATAAGGGTTAACACACCTTTATGACAGTCAGGAATTGACTGTTTCTCTAACGACTTC (double strand) [PgltB -406 to -128]” was run?
Answer: 8.77
